T1: human IL-23R-mouse Fc fusion protein (human; mouse, UniProt Q5VWK5 24-353)
T1 construct: Expressed in FreeStyle 293 cells, purified; immobilized on the ELISA plate at 500 ng/mL; also called human IL-23R-Fc fusion protein; not shown: Fc region of mouse immunoglobulin (IgG2a) as encoded by the vector pFUSE-mIgG2A-Fc2 (InvivoGen); limits and any linker r
T1 sequence: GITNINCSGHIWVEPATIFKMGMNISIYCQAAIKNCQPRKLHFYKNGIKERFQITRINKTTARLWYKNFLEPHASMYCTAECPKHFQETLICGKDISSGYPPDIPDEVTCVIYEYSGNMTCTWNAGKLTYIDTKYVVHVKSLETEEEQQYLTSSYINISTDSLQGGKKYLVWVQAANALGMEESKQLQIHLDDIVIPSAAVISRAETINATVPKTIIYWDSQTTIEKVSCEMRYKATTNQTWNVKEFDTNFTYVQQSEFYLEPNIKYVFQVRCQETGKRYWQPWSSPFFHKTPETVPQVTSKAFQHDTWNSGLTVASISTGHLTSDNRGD

B1: 32-36 (chimeric) (antibody, V domains shown)
VH: QVQMVQSGAEVKRPGASVKVSCKVSGYTLNELGIHWVRQAPGKGLEWMGGFDPEHGKIIYAQRFQGRLTMPEDTSTDTAYMELSSLTSEDTAVYYCATVAAPLDYWGQGTLVTVSS
VL: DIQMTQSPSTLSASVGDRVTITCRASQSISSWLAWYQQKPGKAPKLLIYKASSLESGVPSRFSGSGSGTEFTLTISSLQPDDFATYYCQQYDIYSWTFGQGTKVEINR
B2: 34-58 (chimeric) (antibody, V domains shown)
VH: QVHLVQSGTEVRKPGASVKVSCKVSGYTLNELAIHWVRQAPGKGLEWMGGFDPEHGEIIYAQRFQGRITLPEDTSTDTAYMDLVNLRSEDTAVYFCTTEAAPFDYWGQGSLVIVSS
VL: DIQMTQSPSTLSASVGDRVTITCRASQSLSNWLAWYQQKPGKAPKLLIYKASSLESGVPSRFSGSGSGTDFTLTISGLQPDDFATYYCQQYDIYPRTFGQGTKVEIKR

Tests used:
[1] = target: T1, human IL-23R-mouse Fc fusion protein; assay: antigen ELISA, human IL-23R-Fc immobilized, HRP anti-mouse Ig, chemiluminescence
Experimental: (§1) The present inventors used an antigen ELISA to measure the antigen-specific binding activity of the antibody. The human or monkey IL-23R-Fc fusion protein was immobilized onto a Maxisorp 384-well plate (Nunc, Inc.) at a concentration of 500 ng/mL. A blocking agent (Blocking One; Nacalai Tesque, Inc.) was added thereto and allowed to stand at room temperature for 1 hour, followed by washing twice with a wash buffer [TPBS: a phosphate buffered saline (PBS) containing 0.05% Tween-20], and the purified antibody samples were suitably serially diluted and added thereto. Incubation was performed at room temperature for 1 hour, followed by washing four times with TPBS, and HRP-rabbit anti-mouse Ig antibody (DAKO) which was 2000-fold diluted with a dilution buffer was added. Incubation was performed at room temperature for 1 hour, followed by washing four times with a wash buffer. A BM-chemiluminescence ELISA substrate (POD) (Roche Diagnostics), which is a reagent for detecting chemical luminescence, was added, and the amount of chemiluminescence was measured with an EnVision counter (Perkin Elmer). Each antibody was tested in duplicate and the EC50 was analyzed by curve fitting. In this test, a fusion antibody obtained by replacing the Fc region of the known humanized anti-human IL-23R antibody hum20D7 (patent document 1) with the mouse Fc region (hereinafter referred to as hum20D7-mFc) was used as a comparative antibody. Also, the reason why the hum20D7 was fused with the mouse Fc region to prepare a fusion protein was to use anti-mouse Ig antibody as secondary antibody, and the mouse Fc region could be recognized by the anti-mouse Ig antibody, thereby rendering it possible to measure activity.

[2] = target: T2, monkey IL-23R-mouse Fc fusion protein (monkey; mouse); assay: antigen ELISA, monkey IL-23R-Fc immobilized, HRP anti-mouse Ig, chemiluminescence
T2 construct: extracellular domain; also called monkey IL-23R-Fc fusion protein
Experimental: as §1

Binder	EC50 [1] [µg/mL]	EC50 [2] [µg/mL]
B1	0.023	0.028
B2	0.017	0.013

— patent US20140275490A1 (Astellas, published 2014)
